Biological target: DnaJB8ΔCTD (human)
Test: cross-linking; HspA1A in 1× PBS pH 7.4 mixed with 40 μM DnaJB8, JD_(1–82), DnaJB8ΔCTD or DnaJB8F→S; 37 °C, ADH/DMTMM; XL–MS in triplicate

Sequence of human Hsp70 (HspA1A) (P0DMV8 whole entry): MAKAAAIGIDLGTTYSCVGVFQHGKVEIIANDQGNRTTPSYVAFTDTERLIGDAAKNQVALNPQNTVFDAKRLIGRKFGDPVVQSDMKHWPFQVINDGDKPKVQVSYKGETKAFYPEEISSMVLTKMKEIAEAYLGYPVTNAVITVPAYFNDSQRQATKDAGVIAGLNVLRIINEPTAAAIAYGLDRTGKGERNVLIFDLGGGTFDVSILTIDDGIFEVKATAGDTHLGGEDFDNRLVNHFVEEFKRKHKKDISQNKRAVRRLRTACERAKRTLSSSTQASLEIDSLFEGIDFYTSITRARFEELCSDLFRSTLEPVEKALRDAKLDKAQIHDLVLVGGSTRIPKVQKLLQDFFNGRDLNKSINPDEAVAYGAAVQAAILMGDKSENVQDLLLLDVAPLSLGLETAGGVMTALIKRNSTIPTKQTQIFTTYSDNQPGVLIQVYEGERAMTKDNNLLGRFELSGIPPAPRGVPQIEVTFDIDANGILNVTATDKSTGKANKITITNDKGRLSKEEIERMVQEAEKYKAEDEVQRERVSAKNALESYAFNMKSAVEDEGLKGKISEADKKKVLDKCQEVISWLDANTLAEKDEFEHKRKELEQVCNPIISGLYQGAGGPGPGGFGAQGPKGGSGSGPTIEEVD

Substance: human Hsp70 (HspA1A) (from UniProt P0DMV8 1-641) (natural protein)
- total cross-links between the JD and HspA1A across three XL–MS experiments: 14 cross-links

— article PMC7878476
